3 molecules from paper PMC7589614 can be followed below.

The target in data set [1] is AGR2 (UniProt O95994 21-175). Briefly: porous silicon RIFTS (EOT) biosensor; apparent, mass-transfer limited; Hill fit R2 0.9951; Selection buffers listed (assay buffer and temperature not stated in material): AGR2 137 mM NaCl, 20 mM KCl, 10 mM Na2HPO4, 2 mM KH2PO4 pH 7.4; 6H7 50 mM K2HPO4.
In data set [2] the target is T1, tyrosinase (Bacillus megaterium (printed …, UniProt B2ZB02 1-297)).
T1 sequence: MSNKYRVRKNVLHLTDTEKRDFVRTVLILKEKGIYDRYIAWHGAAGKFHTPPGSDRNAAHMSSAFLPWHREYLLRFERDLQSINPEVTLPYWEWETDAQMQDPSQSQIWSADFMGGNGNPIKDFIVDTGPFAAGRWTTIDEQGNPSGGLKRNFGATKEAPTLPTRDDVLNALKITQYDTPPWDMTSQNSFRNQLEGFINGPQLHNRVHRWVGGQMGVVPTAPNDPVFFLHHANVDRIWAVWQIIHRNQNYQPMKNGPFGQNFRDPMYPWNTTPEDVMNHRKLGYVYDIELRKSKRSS
The experiment in a line: porous silicon RIFTS (EOT) biosensor; apparent, mass-transfer limited; Hill fit R2 0.9731; Selection buffers listed (assay buffer and temperature not stated in material): AGR2 137 mM NaCl, 20 mM KCl, 10 mM Na2HPO4, 2 mM KH2PO4 pH 7.4; 6H7 50 mM K2HPO4.

The target in data set [3] is protein A (Staphylococcus aureus, UniProt P02976 37-485). The experiment in a line: porous silicon RIFTS (EOT) biosensor; apparent, mass-transfer limited; Hill fit R2 0.9177; Selection buffers listed (assay buffer and temperature not stated in material): AGR2 137 mM NaCl, 20 mM KCl, 10 mM Na2HPO4, 2 mM KH2PO4 pH 7.4; 6H7 50 mM K2HPO4.
Sequence of protein A (P02976 37-485): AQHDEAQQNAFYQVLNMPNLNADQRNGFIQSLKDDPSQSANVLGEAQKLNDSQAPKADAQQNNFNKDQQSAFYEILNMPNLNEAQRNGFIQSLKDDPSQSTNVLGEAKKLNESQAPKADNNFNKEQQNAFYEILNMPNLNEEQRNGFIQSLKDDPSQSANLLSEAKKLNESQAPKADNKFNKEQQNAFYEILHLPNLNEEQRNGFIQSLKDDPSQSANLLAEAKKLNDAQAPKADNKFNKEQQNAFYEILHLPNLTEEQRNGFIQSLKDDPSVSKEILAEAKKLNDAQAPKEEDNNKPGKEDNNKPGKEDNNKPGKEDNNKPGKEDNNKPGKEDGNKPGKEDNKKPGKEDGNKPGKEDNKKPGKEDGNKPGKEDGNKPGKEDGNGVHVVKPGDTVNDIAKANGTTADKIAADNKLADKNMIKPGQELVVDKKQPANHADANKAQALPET

Sequence of AGR2 (O95994 21-175): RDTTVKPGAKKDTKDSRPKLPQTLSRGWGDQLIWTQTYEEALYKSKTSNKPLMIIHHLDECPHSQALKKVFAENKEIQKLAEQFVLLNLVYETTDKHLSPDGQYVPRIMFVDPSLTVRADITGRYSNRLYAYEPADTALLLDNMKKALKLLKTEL

TCTCGGACGCGTGTGGTCGGGTGGGAGTTGTGGGGGGGGGTGGGAGGGTT (ssDNA, 5'-amino) [anti-AGR2 aptamer]: the Kd in data set [1] came out at 21 ± 1 µM.

GCTATGGGTGGTCTGGTTGGGATTGGCCCCGGGAGCTGGC (ssDNA, 5'-amino) [anti-his tag aptamer 6H7]: the Kd in data set [2] is 31 ± 7 µM.

B1: anti-protein A aptamer PA#2/8[S1-58] (ssDNA)
DNA: ATACCAGCTTATTCAATTAGCAACATGAGGGGGATAGAGGGGGTGGGTTCTCTCGGCT
modifications: 3'-amino-C6
For B1, in data set [3], the Kd turned out to be 14 ± 1 µM.
